Key:
[1] = molecular target: wild type human CD80 extracellular domain Fc fusion (WT CD80 ECD-Fc) (human) (UniProt P33681); test: SPR; Biacore 3000, CM5 chip with goat anti-human IgG capture antibody; ALPN-202 (120 RU) or WT CD80 ECD-Fc (160 RU) captured; monomeric human CD28, CTLA-4, PD-L1 as analytes; 240 s association, 600 s dissociation, 30 uL/min; global 1:1 fit; for the weak interactions a minimal KD with theoretical Rmax fixed
[2] = molecular target: ALPN-202 (davoceticept), variant CD80 IgV domain Fc fusion (human) (UniProt P33681); test: as above

Row | Kd [1] | Kd [2] | Substance
1 | > 2.6 µM | 0.0099 µM | recombinant monomeric human CD28 (from UniProt P10747 19-152) (receptor)
2 | > 37 µM | – | recombinant monomeric human PD-L1 (from UniProt Q9NZQ7 19-238) (ligand)

Source: article PMC8980021
